Assay results reported in paper PMC3946054 (Structure (London, England : 1993), 2013).
Where two headings read alike, the source gives them in different places.

Tests used:
[1] = target: T1, SCaMC-1 transmembrane domain (TMD), residues 185-477, incorporated in POPC/POPG/cardiolipin liposomes (human, UniProt Q6NUK1 185-477); experiment: SPR
T1 sequence (looked up): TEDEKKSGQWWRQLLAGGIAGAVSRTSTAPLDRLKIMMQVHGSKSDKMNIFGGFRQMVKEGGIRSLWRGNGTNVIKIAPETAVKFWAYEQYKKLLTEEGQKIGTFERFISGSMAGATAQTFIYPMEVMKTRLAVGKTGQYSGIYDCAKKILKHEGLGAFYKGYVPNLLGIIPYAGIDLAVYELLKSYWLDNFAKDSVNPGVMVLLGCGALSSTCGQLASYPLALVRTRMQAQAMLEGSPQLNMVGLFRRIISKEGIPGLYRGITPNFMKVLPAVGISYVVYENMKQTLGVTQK

[2] = target: T1, SCaMC-1 transmembrane domain (TMD), …; experiment: SPR; remark: listed apart in the source

B1: Human SCaMC-1 N-terminal domain (NTD), residues 1-193 (domain or fragment, UniProt Q6NUK1 1-193, looked up)
chain: MLRWLRDFVLPTAACQDAEQPTRYETLFQALDRNGDGVVDIGELQEGLRNLGIPLGQDAEEKIFTTGDVNKDGKLDFEEFMKYLKDHEKKMKLAFKSLDKNNDGKIEASEIVQSLQTLGLTISEQQAELILQSIDVDGTMTVDWNEWRDYFLFNPVTDIEEIIRFWKHSTGIDIGDSLTIPDEFTEDEKKSGQ
Kd [1]: 250 µM
Kd [2]: 5.6 mM
